Read-outs that look alike come from different tables or passages of the source. Blank lines part the entries; values can stand above or below the molecule they belong to.
Experiments:
CD33 antigen (human) [1] = target: CD33 antigen (human) (UniProt P20138)
CD33 antigen (human) [2] = target: CD33 antigen (human) (UniProt P20138); test: competition with 125I-labelled native antibody on HEL 92.1.7 cells; IC50 (reference) / IC50 (sample)
CD33 antigen (human) [3] = target: CD33 antigen (human) (UniProt P20138); remark: listed apart in the source
[4] = target: T1, glycoprotein antigen present on colon cancer cells, recognized by A33 (Homo sapiens (Human)) (UniProt Q99795)
T1 sequence: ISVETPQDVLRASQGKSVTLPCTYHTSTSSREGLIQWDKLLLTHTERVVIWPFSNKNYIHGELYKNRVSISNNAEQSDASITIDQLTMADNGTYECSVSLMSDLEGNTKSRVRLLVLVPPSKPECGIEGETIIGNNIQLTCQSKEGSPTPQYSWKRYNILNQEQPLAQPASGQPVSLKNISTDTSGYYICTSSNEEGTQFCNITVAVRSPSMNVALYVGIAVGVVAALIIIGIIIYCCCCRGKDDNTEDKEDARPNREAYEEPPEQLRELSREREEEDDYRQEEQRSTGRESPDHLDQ

[5] = target: T1, glycoprotein antigen present on colon cancer cells, recognized by A33 (Homo sapiens (Human)); test: competition with 125I-labelled native antibody on COLO 205 cells; IC50 (reference) / IC50 (sample)
[6] = target: IL-2 receptor that is found on activated and functionally mature T cells, including abnormally activated leukemia cells (Homo sapiens (Human)) (UniProt P01589)
CD33 antigen (human) [7] = target: CD33 antigen (human) (UniProt P20138); remark: listed apart in the source
CD33 antigen (human) [8] = target: CD33 antigen (human) (UniProt P20138); remark: listed apart in the source
[9] = target: polyepithelial mucin (PEM) antigen on cells (human) (UniProt P15941)
CD33 antigen (human) [10] = target: CD33 antigen (human) (UniProt P20138); remark: listed apart in the source
CD33 antigen (human) [11] = target: CD33 antigen (human) (UniProt P20138); remark: listed apart in the source
[12] = target: T1, glycoprotein antigen present on colon cancer cells, recognized by A33 (Homo sapiens (Human)); remark: listed apart in the source
CD33 antigen (human) [13] = target: CD33 antigen (human) (UniProt P20138); remark: listed apart in the source
[14] = target: polyepithelial mucin (PEM) antigen on cells (human) (UniProt P15941); remark: listed apart in the source
Target sequence in this assay (P15941 24-1255): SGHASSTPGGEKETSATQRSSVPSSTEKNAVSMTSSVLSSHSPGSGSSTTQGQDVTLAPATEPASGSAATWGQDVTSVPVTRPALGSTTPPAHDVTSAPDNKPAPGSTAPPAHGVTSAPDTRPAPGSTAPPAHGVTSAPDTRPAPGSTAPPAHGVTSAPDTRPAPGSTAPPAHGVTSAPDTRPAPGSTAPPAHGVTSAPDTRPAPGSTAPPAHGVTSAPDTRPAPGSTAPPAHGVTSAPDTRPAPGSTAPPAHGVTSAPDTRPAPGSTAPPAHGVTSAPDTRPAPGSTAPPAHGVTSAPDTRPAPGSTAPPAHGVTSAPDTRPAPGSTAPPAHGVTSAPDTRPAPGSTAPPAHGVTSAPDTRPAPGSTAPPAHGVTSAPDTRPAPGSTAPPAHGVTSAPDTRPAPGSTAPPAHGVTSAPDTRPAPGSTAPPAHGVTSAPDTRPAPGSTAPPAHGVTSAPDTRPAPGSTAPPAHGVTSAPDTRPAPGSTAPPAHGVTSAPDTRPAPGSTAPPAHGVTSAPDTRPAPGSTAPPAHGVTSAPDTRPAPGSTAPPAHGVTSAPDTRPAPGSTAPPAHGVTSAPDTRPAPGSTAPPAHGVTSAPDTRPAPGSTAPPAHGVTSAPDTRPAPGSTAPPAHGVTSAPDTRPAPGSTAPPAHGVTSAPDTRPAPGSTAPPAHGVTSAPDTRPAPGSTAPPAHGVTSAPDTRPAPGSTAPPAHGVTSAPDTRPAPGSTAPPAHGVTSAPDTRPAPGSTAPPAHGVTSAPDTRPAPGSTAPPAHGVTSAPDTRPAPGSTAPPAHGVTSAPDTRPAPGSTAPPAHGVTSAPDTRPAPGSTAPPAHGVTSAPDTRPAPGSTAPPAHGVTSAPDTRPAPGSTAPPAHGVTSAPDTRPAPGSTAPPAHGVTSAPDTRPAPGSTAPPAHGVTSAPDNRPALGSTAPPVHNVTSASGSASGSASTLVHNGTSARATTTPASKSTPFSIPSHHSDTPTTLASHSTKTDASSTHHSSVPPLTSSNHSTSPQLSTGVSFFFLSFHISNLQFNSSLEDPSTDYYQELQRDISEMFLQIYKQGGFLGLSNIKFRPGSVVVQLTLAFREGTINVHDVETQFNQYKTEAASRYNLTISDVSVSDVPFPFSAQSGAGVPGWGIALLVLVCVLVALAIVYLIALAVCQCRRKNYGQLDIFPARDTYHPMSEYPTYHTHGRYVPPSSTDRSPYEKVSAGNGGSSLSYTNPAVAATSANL

[15] = target: polyepithelial mucin (PEM) antigen on cells (human) (UniProt P15941); test: competition with 125I-labelled native antibody on A2780DDP cells; IC50 (reference) / IC50 (sample)
Target sequence in this assay (P15941 24-1255): as above

CD33 antigen (human) [16] = target: CD33 antigen (human) (UniProt P20138); remark: listed apart in the source
CD33 antigen (human) [17] = target: CD33 antigen (human) (UniProt P20138); test: competition with 125I-labelled native antibody on HEL 92.1.7 cells; IC50 (reference) / IC50 (sample); remark: listed apart in the source
CD33 antigen (human) [18] = target: CD33 antigen (human) (UniProt P20138); remark: listed apart in the source
CD33 antigen (human) [19] = target: CD33 antigen (human) (UniProt P20138); remark: listed apart in the source
CD33 antigen (human) [20] = target: CD33 antigen (human) (UniProt P20138); remark: listed apart in the source
CD33 antigen (human) [21] = target: CD33 antigen (human) (UniProt P20138); remark: listed apart in the source
CD33 antigen (human) [22] = target: CD33 antigen (human) (UniProt P20138); remark: listed apart in the source
CD33 antigen (human) [23] = target: CD33 antigen (human) (UniProt P20138); remark: listed apart in the source
CD33 antigen (human) [24] = target: CD33 antigen (human) (UniProt P20138); remark: listed apart in the source
CD33 antigen (human) [25] = target: CD33 antigen (human) (UniProt P20138); remark: listed apart in the source
CD33 antigen (human) [26] = target: CD33 antigen (human) (UniProt P20138); remark: listed apart in the source

- Ex vivo inhibition of colony formation (CD33 antigen (human) [1]): 98 % inhibition
- In vitro IC50 (3H-thymidine incorporation) (CD33 antigen (human) [1]): 0.017 ng/mL
- Rel. Affinity (CD33 antigen (human) [2]): 0.96
Molecule: Conjugate of 4-(4-acetylphenoxy)butanoic acid (7) condensed with Calicheamicin N-acetyl gamma dimethyl hydrazide and m-P67.6 (antibody)

- In vitro IC50 (3H-thymidine incorporation) (CD33 antigen (human) [3]): 0.047 ng/mL
- Rel. Affinity (CD33 antigen (human) [2]): 0.73
Molecule: Conjugate of 6-formyl-2-naphthoic acid (4) condensed with Calicheamicin N-acetyl gamma dimethyl hydrazide and m-P67.6 (antibody)

- In vitro IC50 (3H-thymidine incorporation) [4]: 4.03 ng/mL
- Rel. Affinity [5]: 1.13
Molecule: Conjugate of 4-(4-acetylphenoxy)butanoic acid (7) condensed with calicheamicin N-acetyl gamma dimethyl hydrazide and h-A33 (antibody)

- Ex vivo IC50 (inhibition of D14 CFU-GM colony growth) [6]: 1 ng/mL
- In vitro IC50 (3H-thymidine incorporation) [6]: 0.004 ng/mL
Molecule: Conjugate of 4-(4-acetylphenoxy)butanoic acid (7) condensed with calicheamicin N-acetyl gamma dimethyl hydrazide and anti-Tac (antibody)

- In vitro IC50 (3H-thymidine incorporation) (CD33 antigen (human) [7]): 0.32 ng/mL
- Rel. Affinity (CD33 antigen (human) [2]): 1.91
Molecule: Conjugate of 3-(2-oxoethoxy)benzoic acid (6) condensed with Calicheamicin N-acetyl gamma dimethyl hydrazide and m-P67.6 (antibody)

- Ex vivo inhibition of colony formation (CD33 antigen (human) [8]): 90 % inhibition
- In vitro IC50 (3H-thymidine incorporation) (CD33 antigen (human) [8]): 0.068 ng/mL
- Rel. Affinity (CD33 antigen (human) [2]): 0.77
Molecule: Conjugate of 4-formylphenoxyacetic acid (1) condensed with Calicheamicin N-acetyl gamma dimethyl hydrazide and m-P67.6 (antibody)

- In vitro IC50 (3H-thymidine incorporation) [9]: 0.048 ng/mL
Molecule: Conjugate of 4-(4-acetylphenoxy)butanoic acid (7) condensed with Calicheamicin N-acetyl gamma dimethyl hydrazide and h-CT-M-01 (antibody)

- Ex vivo inhibition of colony formation (CD33 antigen (human) [10]): 99 % inhibition
- In vitro IC50 (3H-thymidine incorporation) (CD33 antigen (human) [10]): 0.0082 ng/mL
- Rel. Affinity (CD33 antigen (human) [2]): 0.42
Molecule: Conjugate of 4-acetylbenzenebutanoic acid (19) condensed with Calicheamicin N-acetyl gamma dimethyl hydrazide and m-P67.6 (antibody)

- Ex vivo inhibition of colony formation (CD33 antigen (human) [11]): 90 % inhibition
- In vitro IC50 (3H-thymidine incorporation) (CD33 antigen (human) [11]): 0.12 ng/mL
- Rel. Affinity (CD33 antigen (human) [2]): 0.76
Molecule: Conjugate of 4-formyl-3-methoxyphenoxyacetic acid (3) condensed with Calicheamicin N-acetyl gamma dimethyl hydrazide and m-P67.6 (antibody)

- In vitro IC50 (3H-thymidine incorporation) [12]: 3.55 ng/mL
- Rel. Affinity [5]: 0.91
Molecule: Conjugate of 4-(4-acetylphenoxy)butanoic acid (7) condensed with calicheamicin gamma dimethyl hydrazide and h-A33 (antibody)

- Ex vivo inhibition of colony formation (CD33 antigen (human) [13]): 71 % inhibition
- In vitro IC50 (3H-thymidine incorporation) (CD33 antigen (human) [13]): 0.45 ng/mL
- Rel. Affinity (CD33 antigen (human) [2]): 1.11
Molecule: Conjugate of 4-(2-oxoethoxy)benzenepropanoic acid (5) condensed with Calicheamicin N-acetyl gamma dimethyl hydrazide and m-P67.6 (antibody)

- In vitro IC50 (3H-thymidine incorporation) [14]: 5.6 ng/mL
- Rel. Affinity [15]: 0.88
B1: Conjugate of 4-formyl-3-methoxyphenoxyacetic acid (3) condensed with Calicheamicin N-acetyl gamma dimethyl hydrazide and m-CT-M-01 (antibody, V domains shown)
VH: QIQLQQSGPELVKPGASVKISCKASGYTFTDYYINWMKQKPGQGLEWIGWIDPGSGNTKYNEKFKGKATLTVDTSSSTAYMQLSSLTSEDTAVYFCAREKTTYYYAMDYWGQGTSVTVSA
VL: DIVMTQAAPSVPVTPGESLSISCRSSKSLLHSNGDTFLYWFLQRPGQSPQLLIYRMSNLASGVPDRFSGSGSGTAFTLRVSRVEAEDVGVYYCMQHLEYPFTFGAGTKLELKR
modifications: drug-linker amide on lysine side chains, sites not stated; drug-linker amide on lysine side chains, sites not stated

- In vitro IC50 (3H-thymidine incorporation) (CD33 antigen (human) [16]): 0.3 ng/mL
- Rel. Affinity (CD33 antigen (human) [17]): 0.81
B2: Conjugate of 4-formyl-3-methoxyphenoxyacetic acid (3) condensed with Calicheamicin N-acetyl gamma dimethyl hydrazide and h-P67.6 (antibody, V domains shown)
VH: EVQLVQSGAEVKKPGSSVKVSCKASGYTITDSNIHWVRQAPGQSLEWIGYIYPYNGGTDYNQKFKNRATLTVDNPTNTAYMELSSLRSEDTDFYYCVNGNPWLAYWGQGTLVTVSS
VL: DIQLTQSPSTLSASVGDRVTITCRASESLDNYGIRFLTWFQQKPGKAPKLLMYAASNQGSGVPSRFSGSGSGTEFTLTISSLQPDDFATYYCQQTKEVPWSFGQGTKVEVKR
modifications: drug-linker amide on lysine side chains, sites not stated; drug-linker amide on lysine side chains, sites not stated

- Ex vivo inhibition of colony formation (CD33 antigen (human) [18]): 95 % inhibition
- In vitro IC50 (3H-thymidine incorporation) (CD33 antigen (human) [18]): 0.23 ng/mL
- Rel. Affinity (CD33 antigen (human) [17]): 0.65
B3: Conjugate of 4-formylphenoxyacetic acid (1) condensed with Calicheamicin N-acetyl gamma dimethyl hydrazide and h-P67.6 (antibody, V domains shown)
VH: B2 VH
VL: B2 VL
modifications: drug-linker amide on lysine side chains, sites not stated; drug-linker amide on lysine side chains, sites not stated

- Ex vivo inhibition of colony formation (CD33 antigen (human) [19]): 98 % inhibition
- In vitro IC50 (3H-thymidine incorporation) (CD33 antigen (human) [19]): 0.52 ng/mL
- Rel. Affinity (CD33 antigen (human) [17]): 0.56
B4: Conjugate of 4-(4-formylphenoxy)butanoic acid (9) condensed with Calicheamicin N-acetyl gamma dimethyl hydrazide and h-P67.6 (antibody, V domains shown)
VH: B2 VH
VL: B2 VL
modifications: drug-linker amide on lysine side chains, sites not stated; drug-linker amide on lysine side chains, sites not stated

- In vitro IC50 (3H-thymidine incorporation) (CD33 antigen (human) [20]): 0.69 ng/mL
- Rel. Affinity (CD33 antigen (human) [17]): 1.19
B5: Conjugate of 3-(2-oxoethoxy)benzoic acid (6) condensed with Calicheamicin N-acetyl gamma dimethyl hydrazide and h-P67.6 (antibody, V domains shown)
VH: B2 VH
VL: B2 VL
modifications: drug-linker amide on lysine side chains, sites not stated; drug-linker amide on lysine side chains, sites not stated

- Ex vivo inhibition of colony formation (CD33 antigen (human) [21]): 96 % inhibition
- In vitro IC50 (3H-thymidine incorporation) (CD33 antigen (human) [21]): 0.098 ng/mL
- Rel. Affinity (CD33 antigen (human) [17]): 0.75
B6: Conjugate of 4-(4-acetylphenoxy)butanoic acid (7) condensed with Calicheamicin N-acetyl gamma dimethyl hydrazide and h-P67.6 (antibody, V domains shown)
VH: B2 VH
VL: B2 VL
modifications: drug-linker amide on lysine side chains, sites not stated; drug-linker amide on lysine side chains, sites not stated

- In vitro IC50 (3H-thymidine incorporation) (CD33 antigen (human) [22]): 0.001 ng/mL
- Rel. Affinity (CD33 antigen (human) [17]): 0.78
B7: Conjugate of 4-(4-acetylphenoxy)butanoic acid (7) condensed with calicheamicin gamma dimethyl hydrazide and h-P67.6 (antibody, V domains shown)
VH: B2 VH
VL: B2 VL
modifications: drug-linker amide on lysine side chains, sites not stated; drug-linker amide on lysine side chains, sites not stated

- Ex vivo inhibition of colony formation (CD33 antigen (human) [23]): 99 % inhibition
- In vitro IC50 (3H-thymidine incorporation) (CD33 antigen (human) [23]): 0.012 ng/mL
- Rel. Affinity (CD33 antigen (human) [17]): 0.5
B8: Conjugate of 4-acetylbenzenebutanoic acid (19) condensed with Calicheamicin N-acetyl gamma dimethyl hydrazide and h-P67.6 (antibody, V domains shown)
VH: B2 VH
VL: B2 VL
modifications: drug-linker amide on lysine side chains, sites not stated; drug-linker amide on lysine side chains, sites not stated

- In vitro IC50 (3H-thymidine incorporation) (CD33 antigen (human) [24]): 2.22 ng/mL
- Rel. Affinity (CD33 antigen (human) [17]): 1.09
B9: Conjugate of 4-(2-oxoethoxy)benzenepropanoic acid (5) condensed with Calicheamicin N-acetyl gamma dimethyl hydrazide and h-P67.6 (antibody, V domains shown)
VH: B2 VH
VL: B2 VL
modifications: drug-linker amide on lysine side chains, sites not stated; drug-linker amide on lysine side chains, sites not stated

- Ex vivo inhibition of colony formation (CD33 antigen (human) [25]): 63 % inhibition
- In vitro IC50 (3H-thymidine incorporation) (CD33 antigen (human) [25]): 4.8 ng/mL
- Rel. Affinity (CD33 antigen (human) [17]): 0.99
B10: Conjugate of 4-formylbenzoic acid (2) condensed with Calicheamicin N-acetyl gamma dimethyl hydrazide and h-P67.6 (antibody, V domains shown)
VH: B2 VH
VL: B2 VL
modifications: drug-linker amide on lysine side chains, sites not stated; drug-linker amide on lysine side chains, sites not stated

- Ex vivo inhibition of colony formation (CD33 antigen (human) [26]): 76 % inhibition
- In vitro IC50 (3H-thymidine incorporation) (CD33 antigen (human) [26]): 0.061 ng/mL
- Rel. Affinity (CD33 antigen (human) [17]): 0.5
B11: Conjugate of 4-(2-acetyl-1-naphthalenyl)oxy! butanoic acid (20) condensed with Calicheamicin N-acetyl gamma dimethyl hydrazide and h-P67.6 (antibody, V domains shown)
VH: B2 VH
VL: B2 VL
modifications: drug-linker amide on lysine side chains, sites not stated; drug-linker amide on lysine side chains, sites not stated
